Measured values as given in the supplement of paper PMC5998384.

What was measured:
[1] = system: HeLa Kyoto; experiment: solubility change mitosis vs G1/S (difference of NP-40 vs SDS log2 ratios) (log2 ratio difference); higher = more soluble in mitosis
[2] = system: HeLa Kyoto; experiment: thermal stability score vs G1/S (z-score of summed log2 fold changes over temperatures); higher = more thermally stable than in G1/S
[3] = system: HeLa Kyoto; experiment: melting temperature (median over replicates), in situ; higher = more thermally stable
[4] = system: HeLa Kyoto; experiment: solubility in G1/S (NP-40 vs SDS abundance) (log2 ratio); higher = more soluble; settings: cell cycle stage: G1/S
[5] = cell cycle stage: early G1 (4.5 h after nocodazole release)
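For melting temperature (median over replicates), in situ in this document: HeLa Kyoto cells synchronized by double thymidine or nocodazole block, proteins quantified by TMT10plex mass spectrometry, three independent biological replicates.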
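For solubility change mitosis vs G1/S (difference of NP-40 vs SDS log2 ratios) in this document: synchronized HeLa Kyoto cells (double thymidine block for G1/S, nocodazole release for mitosis), protein amounts in NP-40 versus SDS lysates quantified by mass spectrometry, three biological replicates.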
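For solubility in G1/S (NP-40 vs SDS abundance) in this document: HeLa Kyoto cells arrested at G1/S by double thymidine block, proteins quantified by TMT10plex mass spectrometry in mild NP-40 versus SDS extracts, three biological replicates.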
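For thermal stability score vs G1/S (z-score of summed log2 fold changes over temperatures) in this document: synchronized HeLa Kyoto cells, proteins quantified by TMT10plex mass spectrometry, three biological replicates, mitosis taken 0.5 h after nocodazole release, G1/S directly after double thymidine block.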

Row | Sequence | solubility change mitosis (log2) [1] | thermal stability score [2, 5] | thermal stability score ([2]; cell cycle stage: mitosis) | melting temperature ([3]; cell cycle stage: G1/S) | melting temperature ([3]; cell cycle stage: mitosis) | solubility in G1/S (log2) [4]
1 | MAAVAGSGAAAAPSSLLLVVGSEFGSPGLLTYVLEELERGIRSWDVDPGVCNLDEQLKVFVSRHSATFSSIVKGQRSLHHRGDNLETLVLLNPSDKSLYDELRNLLLDPASHKLLVLAGPCLEETGELLLQTGGFSPHHFLQVLKDREIRDILATTPPPVQPPILTITCPTFGDWAQLAPAVPGLQGALRLQLRLNPPAQLPNSEGLCEFLEYVAESLEPPSPFELLEPPTSGGFLRLGRPCCYIFPGGLGDAAFFAVNGFTVLVNGGSNPKSSFWKLVRHLDRVDAVLVTHPGADSLPGLNSLLRRKLAERSEVAAGGGSWDDRLRRLISPNLGVVFFNACEAASRLARGEDEAELALSLLAQLGITPLPLSRGPVPAKPTVLFEKMGVGRLDMYVLHPPSAGAERTLASVCALLVWHPAGPGEKVVRVLFPGCTPPACLLDGLVRLQHLRFLREPVVTPQDLEGPGRAESKESVGSRDSSKREGLLATHPRPGQERPGVARKEPARAEAPRKTEKEAKTPRELKKDPKPSVSRTQPREVRRAASSVPNLKKTNAQAAPKPRKAPSTSHSGFPPVANGPRSPPSLRCGEASPPSAACGSPASQLVATPSLELGPIPAGEEKALELPLAASSIPRPRTPSPESHRSPAEGSERLSLSPLRGGEAGPDASPTVTTPTVTTPSLPAEVGSPHSTEVDESLSVSFEQVLPPSAPTSEAGLSLPLRGPRARRSASPHDVDLCLVSPCEFEHRKAVPMAPAPASPGSSNDSSARSQERAGGLGAEETPPTSVSESLPTLSDSDPVPLAPGAADSDEDTEGFGVPRHDPLPDPLKVPPPLPDPSSICMVDPEMLPPKTARQTENVSRTRKPLARPNSRAAAPKATPVAAAKTKGLAGGDRASRPLSARSEPSEKGGRAPLSRKSSTPKTATRGPSGSASSRPGVSATPPKSPVYLDLAYLPSGSSAHLVDEEFFQRVRALCYVISGQDQRKEEGMRAVLDALLASKQHWDRDLQVTLIPTFDSVAMHTWYAETHARHQALGITVLGSNSMVSMQDDAFPACKVEF [MAP1S] | -0.216 | -0.227 | -0.265 | 50.4 °C | 49.8 °C | 0.287
2 | MAAVDIRDNLLGISWVDSSWIPILNSGSVLDYFSERSNPFYDRTCNNEVVKMQRLTLEHLNQMVGIEYILLHAQEPILFIIRKQQRQSPAQVIPLADYYIIAGVIYQAPDLGSVINSRVLTAVHGIQSAFDEAMSYCRYHPSKGYWWHFKDHEEQDKVRPKAKRKEEPSSIFQRQRVDALLLDLRQKFPPKFVQLKPGEKPVPVDQTKKEAEPIPETVKPEEKETTKNVQQTVSAKGPPEKRMRLQ [MED6] | 0.222 | -0.569 | -0.431 | 47.9 °C | 50 °C | 0.404
3 | MAAVLNAERLEVSVDGLTLSPDPEERPGAEGAPLLPPPLPPPSPPGSGRGPGASGEQPEPGEAAAGGAAEEARRLEQRWGFGLEELYGLALRFFKEKDGKAFHPTYEEKLKLVALHKQVLMGPYNPDTCPEVGFFDVLGNDRRREWAALGNMSKEDAMVEFVKLLNRCCHLFSTYVASHKIEKEEQEKKRKEEEERRRREEEERERLQKEEEKRRREEEERLRREEEERRRIEEERLRLEQQKQQIMAALNSQTAVQFQQYAAQQYPGNYEQQQILIRQLQEQHYQQYMQQLYQVQLAQQQAALQKQQEVVVAGSSLPTSSKVNATVPSNMMSVNGQAKTHTDSSEKELEPEAAEEALENGPKESLPVIAAPSMWTRPQIKDFKEKIQQDADSVITVGRGEVVTVRVPTHEEGSYLFWEFATDNYDIGFGVYFEWTDSPNTAVSVHVSESSDDDEEEEENIGCEEKAKKNANKPLLDEIVPVYRRDCHEEVYAGSHQYPGRGVYLLKFDNSYSLWRSKSVYYRVYYTR [ACBD3] | -0.137 | -1.26 | -0.756 | 50.4 °C | 50.2 °C | -0.138
4 | MAAVPELLQQQEEDRSKLRSVSVDLNVDPSLQIDIPDALSERDKVKFTVHTKTTLPTFQSPEFSVTRQHEDFVWLHDTLIETTDYAGLIIPPAPTKPDFDGPREKMQKLGEGEGSMTKEEFAKMKQELEAEYLAVFKKTVSSHEVFLQRLSSHPVLSKDRNFHVFLEYDQDLSVRRKNTKEMFGGFFKSVVKSADEVLFTGVKEVDDFFEQEKNFLINYYNRIKDSCVKADKMTRSHKNVADDYIHTAACLHSLALEEPTVIKKYLLKVAELFEKLRKVEGRVSSDEDLKLTELLRYYMLNIEAAKDLLYRRTKALIDYENSNKALDKARLKSKDVKLAEAHQQECCQKFEQLSESAKEELINFKRKRVAAFRKNLIEMSELEIKHARNNVSLLQSCIDLFKNN [SNX5] | -0.0436 | 0.949 | -0.872 | 52.3 °C | 50.9 °C | 0.468
5 | MAAVSLRLGDLVWGKLGRYPPWPGKIVNPPKDLKKPRGKKCFFVKFFGTEDHAWIKVEQLKPYHAHKEEMIKINKGKRFQQAVDAVEEFLRRAKGKDQTSSHNSSDDKNRRNSSEERSRPNSGDEKRKLSLSEGKVKKNMGEGKKRVSSGSSERGSKSPLKRAQEQSPRKRGRPPKDEKDLTIPESSTVKGMMAGPMAAFKWQPTASEPVKDADPHFHHFLLSQTEKPAVCYQAITKKLKICEEETGSTSIQAADSTAVNGSITPTDKKIGFLGLGLMGSGIVSNLLKMGHTVTVWNRTAEKCDLFIQEGARLGRTPAEVVSTCDITFACVSDPKAAKDLVLGPSGVLQGIRPGKCYVDMSTVDADTVTELAQVIVSRGGRFLEAPVSGNQQLSNDGMLVILAAGDRGLYEDCSSCFQAMGKTSFFLGEVGNAAKMMLIVNMVQGSFMATIAEGLTLAQVTGQSQQTLLDILNQGQLASIFLDQKCQNILQGNFKPDFYLKYIQKDLRLAIALGDAVNHPTPMAAAANEVYKRAKALDQSDNDMSAVYRAYIH [GLYR1] | 1.01 | 1.22 | -1.43 | 53.3 °C | 52.4 °C | -1.74
